Values of other authors, collected in article PMC6136702.

Biological target: EGFR (Homo sapiens) (UniProt P00533)

Kd: 0.2 nM
Substance: EGF (from UniProt P01133)
